Experimental findings from patent US20030027764A1 are described below.

What all share (assay): cell-based or functional assay
In assay [1] the target is Bee venom (Apis melifera) PLA2 (Apis mellifera) (UniProt P00630).
The target in assay [2] is Taipoxin (Oxyuranus scutellatus PLA2) (Oxyuranus scutellatus) (UniProt P00614).
Assay [3] concerns the target daboiatoxin, the major PLA2 toxin of Daboia russelli siamensis venom (Daboia russelli siamensis).

Chain of Bee venom (Apis melifera) PLA2 (Apis mellifera) (P00630 34-167): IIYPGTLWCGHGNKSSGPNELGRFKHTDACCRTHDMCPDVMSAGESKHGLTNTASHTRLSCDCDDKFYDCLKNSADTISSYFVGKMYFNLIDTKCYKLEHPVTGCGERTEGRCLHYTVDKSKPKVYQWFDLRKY
Chain of recombinant Python Antitoxic Factor (PAF), later renamed Phospholipase Inhibitor from Python (PIP), (Q9I8P7 20-201): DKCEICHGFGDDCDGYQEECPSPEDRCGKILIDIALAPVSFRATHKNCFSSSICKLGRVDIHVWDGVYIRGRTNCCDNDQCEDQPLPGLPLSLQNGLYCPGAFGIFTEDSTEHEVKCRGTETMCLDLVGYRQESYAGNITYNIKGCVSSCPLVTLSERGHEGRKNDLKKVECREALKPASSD
Chain of Taipoxin (Oxyuranus scutellatus PLA2) (Oxyuranus scutellatus) (P00614 whole entry, chain 1 of 3): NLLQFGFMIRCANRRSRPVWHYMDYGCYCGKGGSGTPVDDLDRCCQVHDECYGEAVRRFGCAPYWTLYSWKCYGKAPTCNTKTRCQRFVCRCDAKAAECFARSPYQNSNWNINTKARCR
Chain of Taipoxin (Oxyuranus scutellatus PLA2) (Oxyuranus scutellatus) (P00615 28-145, chain 2 of 3, further chain): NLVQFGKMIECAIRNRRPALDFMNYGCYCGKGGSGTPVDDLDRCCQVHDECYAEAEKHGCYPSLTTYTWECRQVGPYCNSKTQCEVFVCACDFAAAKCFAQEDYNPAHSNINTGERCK
Chain of Taipoxin (Oxyuranus scutellatus PLA2) (Oxyuranus scutellatus) (P00616 20-152, chain 3 of 3, further chain): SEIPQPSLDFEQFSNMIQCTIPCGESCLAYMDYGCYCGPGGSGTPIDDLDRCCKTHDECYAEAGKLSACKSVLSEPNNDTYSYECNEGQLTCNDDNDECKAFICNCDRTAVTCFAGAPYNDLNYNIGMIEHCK

For the substance “recombinant Python Antitoxic Factor (PAF), later renamed Phospholipase Inhibitor from Python (PIP), (from UniProt Q9I8P7 20-201)”, in assay [1], the % Inhibition of paw oedema; Bee venom PLA2 (1 µg) + 50 µg PIP was 39.9% and the % Inhibition of paw oedema; Bee venom PLA2 (1 µg) + 100 µg PIP was determined as 78.1%. Moreover, the % Neutralisation in assay [2] amounted to 50%. Moreover, in assay [3], the % Inhibition of paw oedema; DbTx (1 µg) + 50 µg PIP stood at 89.2% and the % Inhibition of paw oedema; DbTx (1 µg) + 100 µg PIP was found to be 92.2%.

Regarding anti-inflammatory peptide-2 from Sigma, the % Inhibition of paw oedema; Bee venom PLA2 (1 µg) + 100 µg AIP-2 in assay [1] stood at 33.6%. In addition, the % Inhibition of paw oedema; DbTx (1 µg) + 100 µg AIP-2 in assay [3] was determined as 35.3%.
